# Test results published in patent US10435681B2, “Compounds and methods for stabilizing thrombin activity” (Omrix Biopharmaceuticals Ltd., priority 2013, dated 2019).
# Experiments:
# Type in all cases: biochemical
# thrombin [1] = biological target: T1, thrombin (Homo sapiens, UniProt P00734); assay: Thrombin stability testing: remaining clotting activity of 1000 IU/ml liquid thrombin after storage at 37° C.; conditions: 0.5 mM peptide, 1000 IU/ml thrombin; for stabilization of thrombin activity (in words): 37° C., 0, 3 and 7 days
# T1 construct: yields the active alpha thrombin molecule which is a 295 amino acid polypeptide (human) composed of a heavy and light chain
# Method: Aqueous liquid thrombin, in its purified and concentrated form 1000 international units IU/ml may undergo autolysis at room temperature causing a significant loss of activity e.g. towards a heterologous substrate. E.g. thrombin activity towards a heterologous substrate is reduced when a liquid thrombin formulation is incubated at room temperature for prolonged periods of time (e.g. 72 to 144 hours), inter alia, due to autolytic degradation. The decrease of thrombin activity towards a heterologous substrate in aqueous liquid solution can be assessed by measuring thrombin activity after prolonged periods of time and under permissive temperature (e.g. 37° C.). In the following experiments, the effect of a peptide on the stability of thrombin was studied under different conditions.
# Aqueous liquid purified and concentrated thrombin (1000 IU/ml; equivalent to about 10 μM) was aliquoted and placed in a 37° C. incubator for 3 days (72 hours), 7 days (168 hours) and 14 days (336 hours). Prior to incubation, thrombin samples were spiked with indicated amounts of different tested peptides or with a control thrombin inhibitor: benzamidine or arginine *HCl (“arginine”). Specific peptides, their concentrations, and thrombin inhibitors used are indicated in each Example. Following the incubation period, the samples were frozen at −80° C. until testing the thrombin activity. Just before thrombin activity assay testing, all the samples were thawed and 100-fold diluted into a dilution buffer (0.4% tri-sodium citrate di-hydrate, 0.9% sodium chloride and 1% BSA, pH=7.5) to bring the thrombin concentration in the sample to that within the specifications of the assay (4-10 IU/ml) and to dilute the tested peptides in the sample to a negligible concentration.
# (§1) Thrombin activity was assessed by clotting time measurements using STart4 Coagulation Instrument (DIAGNOSTICA STAGO™, Asnieres sur Seine, France). The assay is a modification of the European Pharmacopoeia Assay procedure, 1997, 0903, p. 858. Briefly, a calibration curve was prepared by mixing thrombin standard with a fibrinogen solution of 0.1% fibrinogen content (Enzyme Research Laboratories, Ind., USA). Thrombin concentration in the different tested samples was then calculated from the calibration curve by their clotting time (the concentration was extrapolated from the calibration curve).
# For stability testing of 1000IU/ml thrombin following storage with or without peptides, testing was carried out as described above. Dilutions (1:100) were carried out before measuring the activity.
# All of these peptides (“mutant gamma loop peptides” identified in Example 3, random peptides, thrombin derived peptides, and “gamma loop binding peptides” mentioned above) were tested for their ability to stabilize thrombin activity at a concentration of 0.5 mM as described in Example 2.
# thrombin [2] = biological target: T1, thrombin; assay: Thrombin inhibition testing: clotting activity of 10 IU/ml thrombin towards fibrinogen in the presence of the additive; conditions: 10 IU/ml thrombin
# Method: as §1
# For inhibition testing, the clotting activity of 10 IU/ml thrombin was measured in the presence or absence of peptides.
# The assay was carried out as described in Example 1.
# thrombin [3] = biological target: T1, thrombin; assay: Thrombin stability testing: remaining clotting activity of 1000 IU/ml liquid thrombin after storage at 37° C.; conditions: 1000 IU/ml thrombin
sequence,measurement,setting,value
"GNLKETWTANVGKGQPS [SEQ ID NO:2, gamma loop peptide with flanking amino acids on N- and C-termini]",stabilization of thrombin activity (in words),thrombin [1],capable of stabilizing liquid aqueous thrombin
same,stabilization of thrombin activity (in words),thrombin [1]; listed as SEQ ID NO: 2,efficient stabilization of thrombin activity
same,thrombin stability (in words),"thrombin [1]; 72 and 144 hours at 37° C., FIG. 2C",an increase in thrombin stability was observed
same,effect on thrombin activity (in words),thrombin [2]; 0.2 mM peptide,not significantly affected
same,remaining thrombin activity in presence of peptide,"thrombin [2]; 0.5 mM peptide, FIG. 2D",about 80%
same,stabilization of thrombin activity (in words),"thrombin [3]; 0.1 mM peptide, 144 hours at 37° C.",stabilization detected
same,stabilization of thrombin activity (in words),"thrombin [3]; 0.2 mM peptide, 72 hours at 37° C.",already evident
